From article PMC8696166

Biological target: His-GD1 (N-terminally His-tagged GD1 domain of EngA) (Synechococcus elongatus PCC7942)
Test: pull-down; His-EngA or His-GD1 (6 μg) bound to DynaBeads-Histag, 6 μg PipX–ST added; 50 mM Tris-HCl pH 7, 0.1 M KCl, 10% glycerol, 10 mM MgCl2, 20 mM imidazole, 0.1% Triton-X100, with or without 1 mM GDP, room temperature; elution with 500 mM imidazole; Western blot with antisera against PipX and EngA

His-GD1 (N-terminally His-tagged GD1 domain of EngA) (Synechococcus elongatus PCC7942), sequence (Q31KP9 1-169): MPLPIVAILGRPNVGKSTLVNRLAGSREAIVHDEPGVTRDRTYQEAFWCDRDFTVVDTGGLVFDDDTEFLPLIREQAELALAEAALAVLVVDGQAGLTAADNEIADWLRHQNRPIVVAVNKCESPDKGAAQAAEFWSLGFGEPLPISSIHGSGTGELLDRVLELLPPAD

B1: PipX–ST (C-terminally Strep-tagged PipX) (natural protein)
chain: MASENYLNHPTFGLLYQICSFGDSKELFATLYAQRLFFLVAFDARGTRFEPIGRNEARMLVDNRLRQLRRDASLQEYNQLQQVFKQTFL
retention of PipX (PipX/GD1 band intensity ratio) relative to the PipX/EngA ratio with His-EngA: 10 fold
